The values that follow come from patent US20130302250A1 (published 2013).

The target of test [1] is T1, human serum albumin (human, UniProt P02768 25-609).
T1 construct: also called HSA; HAS
Nature of the test: SPR (BIAcore), pH 7.4.

Test [2] has as its target T2, rat serum albumin (rat, UniProt P02770 25-608).
T2 construct: also called RSA; rat albumin
Nature of the test: SPR (BIAcore), pH 7.4.

Test [3] addresses T3, mouse serum albumin (mouse, UniProt P07724 25-608).
T3 construct: also called MSA; mouse albumin
Nature of the test: SPR (BIAcore), pH 7.4.

Test [4] deals with T1, human serum albumin. Nature of the test: SPR (BIAcore), pH 6.0. (In general: In SPR one partner is held on a chip, and binding of the other changes the refractive index at the surface.)
Test [5] addresses T2, rat serum albumin. Nature of the test: SPR (BIAcore), pH 6.0.
In test [6] the target is T3, mouse serum albumin. Nature of the test: SPR (BIAcore), pH 6.0.

Residue numbers refer to the chain shown, from its start.

T2 sequence (P02770 25-608 limits assumed): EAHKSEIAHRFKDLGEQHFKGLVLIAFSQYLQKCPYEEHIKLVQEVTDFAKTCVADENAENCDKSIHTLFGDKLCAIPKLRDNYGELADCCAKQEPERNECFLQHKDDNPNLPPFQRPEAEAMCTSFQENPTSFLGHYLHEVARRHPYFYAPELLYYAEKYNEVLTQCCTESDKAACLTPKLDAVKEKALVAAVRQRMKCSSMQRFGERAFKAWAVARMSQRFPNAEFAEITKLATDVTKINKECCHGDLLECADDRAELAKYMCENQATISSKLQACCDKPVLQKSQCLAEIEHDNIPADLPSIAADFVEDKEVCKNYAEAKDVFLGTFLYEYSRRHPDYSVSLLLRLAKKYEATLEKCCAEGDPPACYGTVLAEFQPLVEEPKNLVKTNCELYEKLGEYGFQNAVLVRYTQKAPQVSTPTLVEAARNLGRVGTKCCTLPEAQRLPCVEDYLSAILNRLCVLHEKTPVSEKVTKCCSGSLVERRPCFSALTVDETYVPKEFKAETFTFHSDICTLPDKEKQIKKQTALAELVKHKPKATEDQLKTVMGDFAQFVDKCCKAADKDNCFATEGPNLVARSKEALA
T3 sequence (P07724 25-608 limits assumed): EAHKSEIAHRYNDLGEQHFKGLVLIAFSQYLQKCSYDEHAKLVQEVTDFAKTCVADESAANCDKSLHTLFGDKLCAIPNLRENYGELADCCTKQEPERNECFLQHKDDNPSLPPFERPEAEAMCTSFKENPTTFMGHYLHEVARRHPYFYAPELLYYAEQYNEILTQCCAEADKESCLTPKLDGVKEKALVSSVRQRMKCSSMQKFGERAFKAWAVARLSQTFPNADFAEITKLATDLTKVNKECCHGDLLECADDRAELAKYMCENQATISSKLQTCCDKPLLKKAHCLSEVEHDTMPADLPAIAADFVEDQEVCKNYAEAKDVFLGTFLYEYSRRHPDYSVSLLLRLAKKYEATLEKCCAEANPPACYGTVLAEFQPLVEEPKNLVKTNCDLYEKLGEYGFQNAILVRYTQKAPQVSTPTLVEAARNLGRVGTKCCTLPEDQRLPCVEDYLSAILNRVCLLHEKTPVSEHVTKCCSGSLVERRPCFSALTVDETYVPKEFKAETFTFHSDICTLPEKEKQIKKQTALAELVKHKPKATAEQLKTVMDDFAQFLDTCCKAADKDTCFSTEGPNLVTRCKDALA

B1: E06 (VNAR)
VNAR: TRVDQTPRTATRETGESLTINCVLTDTSYPLYSTYWYRKNPGSSNKEQISISGRYVESVNKGTKSFSLRIKDLTVADSATYICRAMGTNIWTGDGAGTVLTVNA
notes: Shark (Squalus acanthias) VNAR single domain, type IV; tested as monomeric 6xHis-tagged protein; also called E06-AAA-6xHis; VNAR clone E06
For B1, the “% Surface Active” value was 85.3% in test [1]; 88.4% in test [2]; 85.2% in test [3]; 49.6% in test [4]; 39.5% in test [5]; 34.2% in test [6].

B2: huE06 v1.1 (VNAR)
VNAR: TRVDQSPSSLSASVGDRVTITCVLTDTSYPLYSTYWYQQKPGSSNKEQISISGRYSESVNKGTKSFTLTISSLQPEDFATYYCRAMGTNIWTGDGAGTKVEIKH
notes: Humanized VNAR; also called humanized E06 variant 1.1
With B2, the “% Surface Active” value in test [1] came to 77.8%; in test [2], 72.9%; in test [3] it was 78.2%; in test [4], 29%; in test [5], 17.4%; in test [6], 16.3%.

B3: huE06 v1.10 (VNAR)
VNAR: B2 VNAR with Q38R, Q39K, K40N
notes: Humanized VNAR; also called hE06v1.10
As for B3, the “% Surface Active” value in test [1] was 79.8%; in test [2], 79.3%; in test [3] it was 78.2%; in test [4], 39.3%; in test [5] it was 27.4%; in test [6] it was 24.5%.
